This passage reports EC50 results from patent US20250382354A1.

This assay has as its target JL14 HR2 peptide (JL14). The assay can be described thus: peptide ELISA. On the technique in general: An ELISA detects its analyte on a solid surface through an enzyme-linked reagent.

B1: CV3-25 (antibody)
chain 1: QVQLVESGAEVKKPGESLKISCKGSGYTFTRYWIGWVRQMPGKGLEWMGIIYPGDSDTRYSPSFQGHVTISADKSISTAYLQWNSLKASDTAMYYCARLPQYCSNGVCQRWFDPWGQGTLVTVSS
chain 2: EIVLTQSPSSVSASVGDRVTITCRASQGISSWLAWYQQKPGKAPKLLIYAASSLQSGVPSRFSGSGSGTDFTLTISSLQPEDFATYYCQQGNSFPYTFGQGTNLEIK
B1 had an EC50 of 0.0176 µg/mL.

B2: hr2.020 (antibody, V domains shown)
VH: EVQLVQSGAEVKKPGESLKISCKGSGYRFASHWIGWVRQMPGKGLQWMGIIYPGDSDTKYSPSFQGQVTISADKSINTVYLHWTSLKASDTAVYYCARRPPHLDGGDSPIRFDHWGQGTLVTVSS
VL: QSVLTQPPSASGTPGQRVTISCSGSRSNIGSNDVYWYQQFPGTAPKLLIYRNNQRPSGVPDRFSGSKSGTSASLAISGLRSEDEADYYCATWDDRLTGVFGGGTKLTVV
For the molecule B2, the EC50 was found to be 0.0351 µg/mL.

In general, EC50 refers to the concentration giving half of the maximal effect. Low readings indicate an effect from little substance, high ones a need for much substance.
